Where “and” joins values, the source holds several entries; their conditions need not be identical. Identical values can stand only once.

For assay [1], the target named is T1, Active human KLK5 (human, UniProt Q9Y337 67-293).
T1 construct: glycosylated; also called Hu KLK5; KLK5 analyte (prepared in house)
The assay is described as follows: SPR; LEKTI D5 Fab fusion immobilised, human KLK5 injected; reference row, same values as Table 4A. The method, then:
(§1) Kinetic measurements for the binding of LEKTI D5 Fab fusion protein to human KLK5 were obtained using a Biacore T200 (GE Life Sciences™). To prepare the surface, CM5 chips (GE Life Sciences™) were first activated with a 5-minute injection (30 μL min⁻¹) of a mixture of EDC/NHS (GE Life Sciences™) followed by injection of 100 μg mL⁻¹ LEKTI D5 Fab fusion (UCB) in acetate buffer, pH 5.0 (GE Life Sciences™) to achieve 80 RU immobilised LEKTI D5 Fab fusion on the chip surface. Finally, an injection of 1 M Ethanolamine hydrochloride-NaOH pH 8.5 was utilised to deactivate the surface. Increasing concentrations of human KLK5 from 0.32 to 32 nM in HBS-EP buffer (GE Life Sciences™) were then injected in the single cycle kinetics mode. Values resulting from buffer only injections were subtracted from those obtained for the KLK5 injections and kinetics determined by fitting to a 1:1 binding model in BIAcore evaluation software (GE Life Sciences™)
(§2) As reference, LEKTI D5 Fab fusion protein was immobilised to the chip surface prior to monitoring the interaction with human KLK5.
A general note: In SPR one partner is held on a chip, and binding of the other changes the refractive index at the surface.

Assay [2] has as its target T1, Active human KLK5. The assay can be described thus: SPR, Biacore T200; LEKTI D5 Fab fusion immobilised on CM5 chip, human KLK5 injected 0.32-32 nM, single cycle kinetics, 1:1 model. As to the method:
as §1, §2

Assay [3] deals with T1, Active human KLK5. The assay is described as follows: SPR; antibody 10236 gL6gH12 captured on anti-human Fc and loaded with human KLK5, LEKTI D5 Fab fusion injected, 1:1 model; KLK5 in complex with 10236 gL6gH12. The method, then: (§3) The experimental conditions described in example 5 were used with the exception that an anti-human Fc chip surface was prepared, and the results are reported in Table 6.

For assay [4], the target named is T1, Active human KLK5. The assay is described as follows: SPR, Biacore; rabbit antibody 10236 captured on anti-rabbit Fc and saturated with 20 nM human KLK5, LEKTI D5 Fab fusion injected 30 pM-100 nM, 1:1 model; KLK5 in complex with 10236. As to the method: 20 nM of human KLK5 was then injected until the surface reached saturation. LEKTI D5 Fab fusion protein (generated as described in example 1) was then injected at concentrations between 30 pM and 100 nM. Values from buffer only injections were first subtracted from those obtained with the analytes before fitting to a 1:1 binding kinetic model in Biacore™ evaluation software (GE Life Sciences™)

The target of assay [5] is T1, Active human KLK5. The assay is described as follows: SPR, Biacore T200; LEKTI D5 Fab fusion immobilised on CM5 chip, human KLK5 injected 0.32-32 nM, single cycle kinetics, 1:1 model; human KLK5 alone, no antibody 10236; LEKTI D5 Fab fusion immobilised on the chip. The method, then:
as §1, §2

Assay [6] concerns the target T1, Active human KLK5. The assay is described as follows: SPR; antibody 10236 gL6gH12 captured on anti-human Fc and loaded with human KLK5, LEKTI D5 Fab fusion injected, 1:1 model; KLK5 in complex with 10236 gL6gH12; KLK5 already in complex with antibody 10236 gL6gH12. As to the method: as §3
For assay [7], the target named is T1, Active human KLK5. The assay is described as follows: SPR, Biacore T200, 25 C; reference 10236gL6gH12. As to the method: (§4) A goat anti-human IgG Fc specific antibody (Jackson ImmunoResearch) was immobilized on a CM5 Sensor Chip via amine coupling chemistry to a level of approximately 6000RU. Each analysis cycle consisted of capture of the anti-KLK5 IgG molecules to the anti Fc surface, injection of KLK5 analyte (prepared in house) for 300 s at 30 μl/min followed by 600 s dissociation. At the end of each cycle the surface was regenerated at a flowrate of 10 μL/min using a 60 s injection of 50 mM HCl followed by a 30 s injection of 5 mM NaOH and a final 60 s injection of 50 mM HCl. Human KLK5 was titrated from 20 nM to 0.03 nM (6×3-fold serial dilutions) in HBS-EP+ running buffer (GE Healthcare) supplemented to a final concentration of 300 mM NaCl. Buffer blank injections were included to subtract instrument noise and drift. Kinetic parameters were determined using a 1:1 binding model using Biacore T200 Evaluation software (version 3.0).

Assay [8] addresses T1, Active human KLK5. The assay can be described thus: SPR, Biacore T200, 25 C; IgG captured on anti-human Fc, human KLK5 as analyte (20-0.03 nM), 1:1 model. The method, then:
The kinetics of binding of both antibodies 10236gL6gH12 and 10236gL6-N94DgH12 to human KLK5 were assessed by surface plasmon resonance (Biacore T200, GE Life Sciences™) at 25° C. to assess the impact of 100% deamidation.
as §4

In the next assay the target is T2, Active cyno KLK5 (cynomolgus monkey, UniProt Q9Y337 67-293 (human entry)).
T2 chain: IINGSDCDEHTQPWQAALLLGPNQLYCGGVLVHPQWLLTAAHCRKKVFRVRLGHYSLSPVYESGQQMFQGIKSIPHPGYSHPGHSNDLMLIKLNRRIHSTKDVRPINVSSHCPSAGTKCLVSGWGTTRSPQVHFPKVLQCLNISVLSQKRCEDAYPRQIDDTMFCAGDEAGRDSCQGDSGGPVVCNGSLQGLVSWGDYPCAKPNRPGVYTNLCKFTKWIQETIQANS
The assay is described as follows: cell-based or functional assay.

Assay [9] concerns the target T1, Active human KLK5. The assay is described as follows: SPR; average of the 2 runs of Table 15.
Assay [10] concerns the target T1, Active human KLK5. The assay is described as follows: SPR, Biacore T200, 25 C; IgG from supernatant captured on anti-human Fc, human KLK5 as analyte (20-0.08 nM), 1:1 model. As to the method:
A goat anti-human IgG Fc specific antibody (Jackson ImmunoResearch) was immobilized on a CM5 Sensor Chip via amine coupling chemistry to a level of approximately 6000RU. Each analysis cycle consisted of capture of the anti-KLK5 IgG from supernatants to the anti Fc surface, injection of KLK5 analyte (prepared in house) for 180 s at 30 μl/min followed by 600 s dissociation. At the end of each cycle the surface was regenerated at a flowrate of 10 μL/min using a 60 s injection of 50 mM HCl followed by a 30 s injection of 5 mM NaOH and a final 60 s injection of 50 mM HCl. Human KLK5 was titrated from 20 nM to 0.08 nM (5×3-fold serial dilutions) for the supernatant in HBS-EP+ running buffer (GE Healthcare®) supplemented to a final concentration of 300 mM NaCl. Buffer blank injections were included to subtract instrument noise and drift. Kinetic parameters were determined using a 1:1 binding model using Biacore T200 Evaluation software (version 3.0). Experiments were carried out at 25° C.

B1: LEKTI D5 Fab fusion protein (other)
heavy: EVQLLESGGGLVQPGGSLRLSCAVSGIDLSNYAINWVRQAPGKGLEWIGIIWASGTTFYATWAKGRFTISRDNSGGGGSGGGGSREIVKLCSQYQNQAKNGILFCTRENDPIRGPDGKMHGNLCSMCQAYFQAENEEKKKAEARARSGGGGGGGGSKNTVYLQMNSLRAEDTAVYYCARTVPGYSTAPYFDLWGQGTLVTVSSASTKGPSVFPLAPSSKSTSGGTAALGCLVKDYFPEPVTVSWNSGALTSGVHTFPAVLQSSGLYSLSSVVTVPSSSLGTQTYICNVNHKPSNTKVDKKVEPKSCHHHHHHHHHH
light: DIQMTQSPSSVSASVGDRVTITCQSSPSVWSNFLSWYQQKPGKAPKLLIYEASKLTSGVPSRFSGSGSGTDFTLTISSLQPEDFATYYCGGGYSSISDTTFGGGTKVEIKRTVAAPSVFIFPPSDEQLKSGTASVVCLLNNFYPREAKVQWKVDNALQSGNSQESVTEQDSKDSTYSLSSTLTLSKADYEKHKVYACEVTHQGLSSPVTKSFNRGEC
notes: the Fab itself is specific for albumin; also called Human LEKTI D5 Fab fusion protein
The term koff denotes the first-order rate constant of dissociation. Lower therefore signals a long-lived complex. For orientation: kon means a measure of how fast the partners come together. A lower kon goes with slower complex formation. What is called Kd is the free concentration of one partner at which half of the binding sites on the other are occupied at equilibrium, for simple one-to-one binding. Take B1: the koff came out at 2.3e-05 s⁻¹ with Active human KLK5 [1], 2.3e-05 s⁻¹ with Active human KLK5 [2], 0.0016 s⁻¹ with Active human KLK5 [3] and 0.0073 s⁻¹ with Active human KLK5 [4]. In addition, the kon is 570000 M⁻¹ s⁻¹ with Active human KLK5 [1], 570000 M⁻¹ s⁻¹ with Active human KLK5 [2] and 59000 M⁻¹ s⁻¹ with Active human KLK5 [4]. Further, the results for the dissociation constant Kd with Active human KLK5 [4], with Active human KLK5 [5] and in the assay with Active human KLK5 [6] were 120 nM, 0.04 nM and 540 nM, respectively.

B2: Antibody 10236 gL6-N94DgH12 (IgG4P) (antibody, V domains shown)
VH: EVQLQESGPGLVKPSGTLSLTCAVSGFPLSNYAMSWVRQPPGKGLEWIGDIYPSDIIDYASWAKGRVTISQDSSKNQVSLKLSSVTAADTAVYYCARDNNDYGLDIWGQGTLVTVSS
VL: AYDMTQSPSSLSASVGDRVTITCQASQSISSWLAWYQQKPGKAPKLLIYLASTLASGVPSRFSGSGSGTDFTLTISSLQPEDFATYYCQQGYTDSNIINTFGGGTKVEIKR
notes: surrogate for the fully deamidated product of 10236gL6gH12
Regarding B2, the “fold decrease of affinity against 10236gL6gH12” value in the assay with Active human KLK5 [7] worked out at 4.5 fold. In the assay with Active human KLK5 [8], this molecule showed a Kd of 1.25 nM, a koff of 0.00486 s⁻¹ and a kon of 3.89e+06 M⁻¹ s⁻¹.

B3: Humanized antibody 10236 gL6gH12 (antibody, V domains shown)
VH: EVQLQESGPGLVKPSGTLSLTCAVSGFPLSNYAMSWVRQPPGKGLEWIGDIYPSDIIDYASWAKGRVTISQDSSKNQVSLKLSSVTAADTAVYYCARDNNDYGLDIWGQGTLVTVSS
VL: AYDMTQSPSSLSASVGDRVTITCQASQSISSWLAWYQQKPGKAPKLLIYLASTLASGVPSRFSGSGSGTDFTLTISSLQPEDFATYYCQQGYTNSNIINTFGGGTKVEIKR
notes: also called Ab10236gL6gH12
On to B3, for which, in the assay with Active cyno KLK5, the “IC50 (read off the curve)” value is roughly 0.1 nM. Moreover, the dissociation constant Kd was 0.299 nM with Active human KLK5 [9]; 0.314 nM and 0.283 nM in the assay with Active human KLK5 [8]; 0.324 nM in the assay with Active human KLK5 [10]. For the same molecule, the dissociation rate constant (koff) is 0.000711 s⁻¹ and 0.000658 s⁻¹ with Active human KLK5 [8]; 0.00066 s⁻¹ with Active human KLK5 [10]. In addition, the kon was 2.26e+06 M⁻¹ s⁻¹ and 2.33e+06 M⁻¹ s⁻¹ with Active human KLK5 [8]; 2.04e+06 M⁻¹ s⁻¹ in the assay with Active human KLK5 [10].
